Laboratory results reported in patent publication US20230059341A1 (TESARO, published 2023).
Like-named read-outs stand apart in the source and are kept apart here.

Assays:
[1] = target: T1, Neonatal Fc Receptor (FcRn) (UniProt P55899 24-297; P61769 21-119, limits assumed); assay: FcRn binding assay, BIACORE (SPR)
[2] = target: T2, PD-1 protein constitutively expressed on engineered CHO K1 cells (UniProt Q15116 25-288, limits assumed); assay: MSD potency assay: competitive binding on CHO K1 cells expressing PD-1, inhibition of PD-L1-mFc binding, ECL; percent of reference material
T2 construct: whole, on cells; also called programmed cell death protein 1
T2 sequence (Q15116 25-288 limits assumed, change not shown): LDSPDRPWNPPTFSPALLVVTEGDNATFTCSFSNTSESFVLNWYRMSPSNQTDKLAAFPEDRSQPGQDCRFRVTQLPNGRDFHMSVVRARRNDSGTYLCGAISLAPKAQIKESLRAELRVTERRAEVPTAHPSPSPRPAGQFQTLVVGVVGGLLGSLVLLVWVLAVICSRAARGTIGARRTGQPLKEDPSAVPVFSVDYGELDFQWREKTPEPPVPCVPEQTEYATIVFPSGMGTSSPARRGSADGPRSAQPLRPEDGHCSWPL
Procedure: (§1) The Meso Scale Discovery (MSD) potency assay employs engineered CHO K1 cells constitutively expressing the PD-1 protein. […] The readout is measured using a specific detection antibody mixture that releases an electrochemiluminescence (ECL) signal that can be quantified.

[3] = target: T3, human PD-1 on PD-1 effector cells (Jurkat T cells, Promega #J1155) (human, UniProt Q15116 25-288); assay: cell-based or functional assay
T3 sequence (Q15116 25-288): as the sequence (Q15116 25-288 limits assumed, change not shown) above

[4] = target: T3, human PD-1 on PD-1 effector cells …; assay: cell-based or functional assay; remark: listed apart in the source
[5] = target: T2, PD-1 protein constitutively expressed …; assay: MSD potency assay: competitive binding on CHO K1 cells expressing PD-1, inhibition of PD-L1-mFc binding, ECL; percent of reference material; remark: listed apart in the source
Procedure: as §1

[6] = target: T1, Neonatal Fc Receptor (FcRn); assay: FcRn binding assay, BIACORE (SPR); remark: listed apart in the source
[7] = target: T3, human PD-1 on PD-1 effector cells …; assay: cell-based or functional assay; remark: listed apart in the source
[8] = target: T2, PD-1 protein constitutively expressed …; assay: MSD potency assay: competitive binding on CHO K1 cells expressing PD-1, inhibition of PD-L1-mFc binding, ECL; percent of reference material; remark: listed apart in the source
Procedure: as §1

[9] = target: T1, Neonatal Fc Receptor (FcRn); assay: FcRn binding assay, BIACORE (SPR); remark: listed apart in the source
[10] = target: T3, human PD-1 on PD-1 effector cells …; assay: cell-based or functional assay; remark: listed apart in the source
[11] = target: T1, Neonatal Fc Receptor (FcRn); assay: FcRn binding assay, BIACORE (SPR); remark: listed apart in the source
[12] = target: T1, Neonatal Fc Receptor (FcRn); assay: FcRn binding assay, BIACORE (SPR); remark: listed apart in the source
[13] = target: T3, human PD-1 on PD-1 effector cells …; assay: cell-based or functional assay; remark: listed apart in the source
[14] = target: T1, Neonatal Fc Receptor (FcRn); assay: FcRn binding assay, BIACORE (SPR); remark: listed apart in the source
[15] = target: T2, PD-1 protein constitutively expressed …; assay: MSD potency assay: competitive binding on CHO K1 cells expressing PD-1, inhibition of PD-L1-mFc binding, ECL; percent of reference material; remark: listed apart in the source
Procedure: as §1

[16] = target: T1, Neonatal Fc Receptor (FcRn); assay: FcRn binding assay, BIACORE (SPR); T0 (exposed to H2O2, no incubation)

Row | Kd [1] | Relative Potency, MSD Binding [2] | Relative Potency, Cell-Based Bioassay [3] | Relative Potency, Cell-Based Bioassay [4] | Relative Potency, MSD Binding [5] | Kd [6] | Relative Potency, Cell-Based Bioassay [7] | Relative Potency, MSD Binding [8] | Kd [9] | Relative Potency (Potency by cell-based bioassay) [10] | Kd [11] | Kd [12] | Relative Potency, Cell-Based Bioassay [13] | Kd [14] | Relative Potency, MSD Binding [15] | Kd [16] | Binder
1 | 2140 nM | 88% | 98% | 98% | 88% | 2140 nM | 98% | 88% | 2140 nM | 98% | 2140 nM | 2140 nM | 98% | 2140 nM | 88% |  | Dostarlimab, Unstressed Control (antibody, human IgG4 S228P, kappa, percent of population: Met 248 oxidation 3.0; Asp 261/266/276 isomerization 1.0; Asn 311 deamidation 6.0; Asn 380 deamidation 8.4; Asn 430 deamidation 1.2; Lys 443 clipped 97.8, Control of the forced degradation study (DS batch #1); HMW 0.9%) heavy: not shown light: DIQLTQSPSFLSAYVGDRVTITCKASQDVGTAVAWYQQKPGKAPKLLIYWASTLHTGVPSRFSGSGSGTEFTLTISSLQPEDFATYYCQHYSSYPWTFGQGTKLEIKRTVAAPSVFIFPPSDEQLKSGTASVVCLLNNFYPREAKVQWKVDNALQSGNSQESVTEQDSKDSTYSLSSTLTLSKADYEKHKVYACEVTHQGLSSPVTKSFNRGEC
2 |  |  |  |  |  |  |  |  |  | 90% |  |  |  | 2490 nM |  |  | Dostarlimab, photo degraded, Vis light, 25° C., 1 week and UV light, 25° C., 1 week (antibody, human IgG4 S228P, kappa, percent of population: Trp 50 oxidation 4.8; percent of population: Met 248 oxidation 33.4; Asp 261/266/276 isomerization 1.0; Asn 311 deamidation 6.4; Met 354 oxidation 10.9; Asn 380 deamidation 9.5; Asn 385 deamidation 1.3; Met 424 oxidation 27.0; Asn 430 deamidation 1.2; Lys 443 clipped 97.8, Mixture; HMW 3.3%; also called Photolysis) heavy: not shown light: DIQLTQSPSFLSAYVGDRVTITCKASQDVGTAVAWYQQKPGKAPKLLIYWASTLHTGVPSRFSGSGSGTEFTLTISSLQPEDFATYYCQHYSSYPWTFGQGTKLEIKRTVAAPSVFIFPPSDEQLKSGTASVVCLLNNFYPREAKVQWKVDNALQSGNSQESVTEQDSKDSTYSLSSTLTLSKADYEKHKVYACEVTHQGLSSPVTKSFNRGEC
3 |  |  |  | 94% |  |  |  | 95% |  | 94% |  |  |  |  |  | 4.38 µM | Dostarlimab, H2O2 treated, T0 (exposed to H2O2, no incubation) (antibody, human IgG4 S228P, kappa, percent of population: Asn 137 deamidation 1.3; percent of population: Met 103 oxidation 1.2; Met 248 oxidation 47.1; Asn 311 deamidation 6.8; Met 354 oxidation 16.7; Asn 380 deamidation 10.7; Asn 385 deamidation 1.7; Met 424 oxidation 29.0; Lys 443 clipped 97.2, 0.1% (v:v) H2O2, quenched at once with methionine; also called H2O2 T0; Peroxide (H2O2) Oxidation) heavy: not shown light: DIQLTQSPSFLSAYVGDRVTITCKASQDVGTAVAWYQQKPGKAPKLLIYWASTLHTGVPSRFSGSGSGTEFTLTISSLQPEDFATYYCQHYSSYPWTFGQGTKLEIKRTVAAPSVFIFPPSDEQLKSGTASVVCLLNNFYPREAKVQWKVDNALQSGNSQESVTEQDSKDSTYSLSSTLTLSKADYEKHKVYACEVTHQGLSSPVTKSFNRGEC
